Measurements taken from the supplement of paper PMC9112550, “Optimization of the antimicrobial peptide Bac7 by deep mutational scanning” (BMC Biology, 2022).

System: Escherichia coli TOP10
Test: shrunken log2 fold change of peptide-encoding DNA abundance (4.5 h post-induction vs induction); higher = less antimicrobial activity (less host growth inhibition)
Settings: time post-induction: 4.5 h; library: site-saturation at positions 5, 18, 19, 20
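Also: peptides expressed intracellularly from a pBAD plasmid library in pooled LB shake-flask culture, induced with 0.3% L-arabinose, DNA abundance read by NGS, three biological replicates, DESeq2 with apeglm shrinkage.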

Sequence | shrunken log2 fold change
RRIRSRPPRLPRPRPRPPRFPRP | 0.378
RRIRSRPPRLPRPRPRPPRRPRP | 0.701
RRIRSRPPRLPRPRPRPPSAPRP | 0.646
RRIRSRPPRLPRPRPRPPSKPRP | 0.0454
RRIRSRPPRLPRPRPRPPTCPRP | 0.155
RRIRSRPPRLPRPRPRPPTTPRP | 0.391
RRIRSRPPRLPRPRPRPPYDPRP | -0.397
RRIRSRPPRLPRPRPRPQAMPRP | 0.182
RRIRSRPPRLPRPRPRPQAQPRP | -0.121
RRIRSRPPRLPRPRPRPQCLPRP | -0.208
RRIRSRPPRLPRPRPRPQFCPRP | -0.16
RRIRSRPPRLPRPRPRPQFIPRP | -1.79
RRIRSRPPRLPRPRPRPQHFPRP | -0.00646
RRIRSRPPRLPRPRPRPQIIPRP | -0.226
RRIRSRPPRLPRPRPRPQIQPRP | -0.118
RRIRSRPPRLPRPRPRPQKHPRP | -0.106
RRIRSRPPRLPRPRPRPQKTPRP | 0.0161
RRIRSRPPRLPRPRPRPQLIPRP | -0.0943
RRIRSRPPRLPRPRPRPQMSPRP | -0.0374
RRIRSRPPRLPRPRPRPQPYPRP | -0.159
RRIRSRPPRLPRPRPRPQRSPRP | 0.316
RRIRSRPPRLPRPRPRPQSAPRP | 0.108
RRIRSRPPRLPRPRPRPQTDPRP | -0.0826
RRIRSRPPRLPRPRPRPQTKPRP | -0.0915
RRIRSRPPRLPRPRPRPQTPPRP | 0.6

Sequence | shrunken log2 fold change
RRIRSRPPRLPRPRPRPQWDPRP | -0.235
RRIRSRPPRLPRPRPRPQWGPRP | -0.0633
RRIRSRPPRLPRPRPRPQYMPRP | -0.695
RRIRSRPPRLPRPRPRPREKPRP | 0.0145
RRIRSRPPRLPRPRPRPRFHPRP | -0.302
RRIRSRPPRLPRPRPRPRGAPRP | 0.737
RRIRSRPPRLPRPRPRPRILPRP | -0.34
RRIRSRPPRLPRPRPRPRITPRP | -0.421
RRIRSRPPRLPRPRPRPRKAPRP | 0.0188
RRIRSRPPRLPRPRPRPRKEPRP | 0.131
RRIRSRPPRLPRPRPRPRKFPRP | 0.015
RRIRSRPPRLPRPRPRPRLMPRP | 0.198
RRIRSRPPRLPRPRPRPRLNPRP | 0.15
RRIRSRPPRLPRPRPRPRMFPRP | -0.121
RRIRSRPPRLPRPRPRPRNVPRP | 0.0864
RRIRSRPPRLPRPRPRPRPYPRP | -0.244
RRIRSRPPRLPRPRPRPRQCPRP | 0.159
RRIRSRPPRLPRPRPRPRQPPRP | 0.268
RRIRSRPPRLPRPRPRPRQTPRP | 0.0651
RRIRSRPPRLPRPRPRPRQWPRP | 0.69
RRIRSRPPRLPRPRPRPRRFPRP | -0.0186
RRIRSRPPRLPRPRPRPRRYPRP | -0.0572
RRIRSRPPRLPRPRPRPRTRPRP | 0.512
RRIRSRPPRLPRPRPRPRVTPRP | 0.169
RRIRSRPPRLPRPRPRPRWMPRP | -0.206

Sequence | shrunken log2 fold change
RRIRSRPPRLPRPRPRPRYQPRP | -0.145
RRIRSRPPRLPRPRPRPSDRPRP | -0.254
RRIRSRPPRLPRPRPRPSEKPRP | 0.029
RRIRSRPPRLPRPRPRPSFPPRP | -0.557
RRIRSRPPRLPRPRPRPSFTPRP | -0.524
RRIRSRPPRLPRPRPRPSGLPRP | 0.177
RRIRSRPPRLPRPRPRPSHDPRP | -0.308
RRIRSRPPRLPRPRPRPSHLPRP | -0.265
RRIRSRPPRLPRPRPRPSKLPRP | -0.398
RRIRSRPPRLPRPRPRPSKRPRP | -0.126
RRIRSRPPRLPRPRPRPSKTPRP | -0.159
RRIRSRPPRLPRPRPRPSLQPRP | -0.606
RRIRSRPPRLPRPRPRPSMEPRP | -0.0673
RRIRSRPPRLPRPRPRPSNAPRP | -0.276
RRIRSRPPRLPRPRPRPSNMPRP | -1.05
RRIRSRPPRLPRPRPRPSNWPRP | -0.237
RRIRSRPPRLPRPRPRPSPKPRP | 0.0583
RRIRSRPPRLPRPRPRPSPPPRP | 0.154
RRIRSRPPRLPRPRPRPSQQPRP | 0.0577
RRIRSRPPRLPRPRPRPSRLPRP | -0.0299
RRIRSRPPRLPRPRPRPSSLPRP | -0.255
RRIRSRPPRLPRPRPRPSTMPRP | -0.455
RRIRSRPPRLPRPRPRPSTPPRP | -0.0374
RRIRSRPPRLPRPRPRPSVNPRP | -0.119
RRIRSRPPRLPRPRPRPSVRPRP | -0.0911
